{
  "source": "paper PMC7350215",
  "about": "“Features of the Human Antibody Response against the Respiratory Syncytial Virus Surface Glycoprotein G” (Vaccines, 2020)",
  "molecular_target": "the molecule itself",
  "assay": "non-reducing SDS-PAGE with immunoblot; purified A2-G separated under non-reducing or reducing conditions, blot stained with anti-His antibodies",
  "data": [
    {"protein": "Recombinant RSV A2-derived G protein (extracellular domain of the attachment glycoprotein G, amino acids 66 to 298) (domain or fragment, Attachment glycoprotein G of respiratory syncytial virus strain A2, UniProtKB/Swiss-Prot P03423.1, extracellular domain, amino acids 66 to 298 (N66 to Q298); also called A2-G; recombinant His-tagged A2-G; not shown: His6, C-terminal, kept) NHKVTPTTAIIQDATSQIKNTTPTYLTQNPQLGISPSNPSEITSQITTILASTTPGVKSTLQSTTVKTKNTTTTQTQPSKPTTKQRQNKPPSKPNNDFHFEVFNFVPCSICSNNPTCWAICKRIPNKKPGKKTTTKPTKKPTLKTTKKDPKPQTTKSKEVPTTKPTEEPTINTTKTNIITTLLTSNTTGNPELTSQMETFHSTSSEGNPSPSQVSTTSEYPSQPSSPPNTPRQ", "values": [
      {"measurement": "binding result", "value": "binds"}
    ]}
  ]
}
